Positions count from the first letter of the chain named.
B1: Fab 10E8 3R conjugated with KK114 (Fab, V domains shown)
VH: EVQLVESGGGLVKPGGSLRLSCSASGFDFDNAWMTWVRQPPGKGLEWVGRITGPGEGWSVDYAAPVEGRFTISRLNSINFLYLEMNNLRMEDSGLYFCARTGKYYDFWSGYPPGEEYFQDWGRGTLVTVSS
VL: SYELTQETGVSVALGRTVTITCRGDSLRRHYASWYQKKPGQAPILLFYGKRNRPSGVPDRFSGSARGNRASLTISGAQAEDDAEYYCSSRDKSGSRLSVFGGGTKLTVL
notes: also called 3R mutant
B2: Fab 10E8 3R-WG conjugated with KK114 (Fab, V domains shown)
VH: B1 VH with W108G
VL: B1 VL
notes: also called 3R/WG mutant

Molecular target: T1, HIV-1 envelope glycoprotein Env_(JR-CSF) on intact virions (HIV-1 group M subtype B, isolate JR-CSF, UniProt P20871)
T1 construct: also called JR-CSF Env-WT; JR-CSF virions; source: 293T cells transfected with the Env(-) pCHIV plasmid and the full-length JR-CSF Env clone; on pseudovirions purified by ultracentrifugation through a 20% sucrose cushion
Assay: STED microscopy of fluorescent Fab on single virions
Conditions: one partner purified

Row | Binder | binding result
1 | B1 | binds
2 | B2 | binds

Source: paper PMC6325134 (Nature Communications, 2019)
